Experiments:
[1] = target: T1, recombinant human lymphotoxin alpha (rhuLTα) (human, UniProt P01374 35-205); assay: cell-based or functional assay
T1 sequence (looked up): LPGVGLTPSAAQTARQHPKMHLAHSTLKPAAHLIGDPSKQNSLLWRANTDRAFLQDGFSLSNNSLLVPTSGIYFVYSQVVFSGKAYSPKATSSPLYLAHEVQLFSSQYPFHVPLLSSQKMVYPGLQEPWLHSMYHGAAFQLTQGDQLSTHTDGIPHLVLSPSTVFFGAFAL

[2] = target: T1, recombinant human lymphotoxin alpha …; assay: SPR; Mab captured on immobilized anti-murine Fc antibody, rhuLTα in solution
Procedure: The affinity of anti-human LTα Mabs for rhuLTα was determined using surface plasmon resonance technology. The murine Mabs were first captured on chips that contained immobilized polyclonal anti-murine Fc antibody. Buffer containing rhuLTα was then passed over the captured Mab molecules and the resulting change in the mass bound over time was recorded.

murine LTα = target: T2, murine LTα (murine, UniProt P09225 34-202, limits assumed); assay: EIA, recombinant protein coated at 1 µg/mL
T2 construct: Coated as recombinant protein in the EIA; used as 'murine LTα lysates' in the WEHI assay; also called murine LTα lysates
T2 sequence (looked up): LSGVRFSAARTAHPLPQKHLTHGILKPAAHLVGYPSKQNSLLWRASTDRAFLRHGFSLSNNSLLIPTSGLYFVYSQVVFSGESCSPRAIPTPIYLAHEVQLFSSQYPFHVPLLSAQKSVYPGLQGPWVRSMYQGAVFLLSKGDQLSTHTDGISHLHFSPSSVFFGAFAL
Procedure: (§1) Enzyme immunoassays (EIAs) were used to test hybridoma cell supernatants for the presence of murine anti-LTα Mabs. Briefly, plates were coated with rhuLTα at 10 μg/mL in PBS overnight. After washing in 0.15 M saline containing 0.02% (v/v) Tween 20, the wells were blocked with 1% (w/v) BSA in PBS for 1 hour at RT. Undiluted hybridoma supernatants were incubated on the plates for one hour at 37° C. The plates were washed and probed with HRP-conjugated goat anti-mouse IgG Fc specific antibody for one hour at 37° C. The plates were again washed and citrate-phosphate substrate solution (0.1 M citric acid and 0.2 M sodium phosphate, 0.01% H₂O₂ and 1 mg/mL OPD) was added for 15 minutes at RT. Stop solution (4N sulfuric acid) was then added and the OD's were read at 490 nm using an automated plate spectrophotometer. The anti-human LTα Mabs were assessed for their ability to cross-react with murine LTα or human TNFα. The recombinant proteins were coated on EIA plates at 1 μg/mL in the same manner described above. Purified Mabs were incubated on the plates in serial dilutions starting at […] for 1 hour at 37° C. The plates were washed, probed and processed as above. […] Eight different hybridoma clones that secrete a murine IgG1 κ Mab specifically binds to rhuLTα.

human TNFα = target: T3, human TNFα (human, UniProt P01375 77-233); assay: EIA, recombinant protein coated at 1 µg/mL
T3 construct: Coated as recombinant protein in the EIA
Procedure: as §1

T3 sequence (P01375 77-233 limits assumed): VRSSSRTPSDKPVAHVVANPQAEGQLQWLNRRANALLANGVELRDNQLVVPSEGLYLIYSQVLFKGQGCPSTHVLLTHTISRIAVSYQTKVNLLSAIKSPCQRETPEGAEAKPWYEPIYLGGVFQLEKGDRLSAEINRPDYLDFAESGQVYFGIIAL

B1: murine anti-human LTα Mab 4 (antibody, V domains shown)
VH: PGLVAPAQSLSITCTVSGFSLTSYGVHWVRQPPGKGLEWLGVIWAGGNTNYNSPLMSRLRIIKDNSKSQVFLKMNSLQADDTAMYYCVSHDVNNPFGYWGQGTLVTVSA
VL: DIQMTQTTSSLSASLGDRVTISCRASQDITNYLNWYQQKPDGTVKLLIYYTSRLHSGVPSRFSGSGSGTDYSLTISNLEQEDIATYFCQQGNTLPYTFGGGTRLEIK
notes: Tested as the murine IgG1 kappa hybridoma Mab; also called Mab number 4
IC50, inhibition of LTα-mediated WEHI 164 cell cytotoxicity, rhuLTα at 10 ng/mL [1]: 6.2 µg/mL
IC50, inhibition of WEHI 164 cell cytotoxicity, rhuLTα at 0.1 ng/mL [1]: 0.54 µg/mL
normalized molar ratio of Mab to rhuLTα at the IC50 value, rhuLTα at 0.1 ng/mL [1]: 1800 molar ratio Mab:rhuLTα
Kd [2]: 1.1 nM
binding result (murine LTα): no binding (tested: serial dilutions starting at 25 µg/nL)
binding result (human TNFα): no binding (tested: serial dilutions starting at 25 µg/nL)

— patent US20050266004A1 (published 2005)
